The source of these data is article PMC3839082.

Positions count from the first letter of the chain named. Numbers in names are those of the source.

Substrate in the data set: Nc1ncnc2c1ncn2[C@@H]1O[C@H](COP(=O)(O)OP(=O)(O)OP(=O)(O)O)[C@@H](O)[C@H]1O
As to the kind of experiment: purified protein. In kind it is biochemical, Homo sapiens. To be noted: Mg2+ ATP binding site.

B1: hCINAP (Homo sapiens) (protein)
chain: MLLPNILLTGTPGVGKTTLGKELASKSGLKYINVGDLAREEQLYDGYDEEYDCPILDEDRVVDELDNQMREGGVIVDYHGCDFFPERWFHIVFVLRTDTNVLYERLETRGYNEKKLTDNIQCEIFQVLYEEATASYKEEIVHQLPSNKPEELENNVDQILKWIEQWIKDHNS
The Km is the concentration of substrate that gives half-maximal velocity. One may read the kcat/Km as the second-order rate constant that governs catalysis at low substrate concentration. With B1, the Km came to 45 ± 5 µM and the kcat/Km is 140 M⁻¹ s⁻¹.

B2: hCINAP-H79G (Homo sapiens; H79G) (protein)
chain: B1 chain with H79G
As to B2, the Km was 93 ± 8 µM.
